Assay results reported in patent publication US20220242958A1, “BISPECIFIC NANOBODIES” (Ablynx N.V., priority 2013, published 2022).

How the values were obtained:
Her3 = Her3 (Homo sapiens, UniProt P21860); details: read-out: affinity to Her3; cited from earlier work
EGFR = EGFR (Homo sapiens, UniProt P00533); details: read-out: affinity to EGFR; cited from earlier work
[1] = molecular target: T1, human IL-23R extracellular domain Fc-fusion (Homo sapiens, UniProt Q5VWK5); experiment: SPR (Biacore T100) on IL-23R-Fc; format: binding
T1 construct: Fc-fusions of human IL12Rβ1, IL12Rβ2 and IL-23R extracellular domains; purchased R&D Systems #1400-IR
T1 sequence (Q5VWK5 24-355 limits assumed): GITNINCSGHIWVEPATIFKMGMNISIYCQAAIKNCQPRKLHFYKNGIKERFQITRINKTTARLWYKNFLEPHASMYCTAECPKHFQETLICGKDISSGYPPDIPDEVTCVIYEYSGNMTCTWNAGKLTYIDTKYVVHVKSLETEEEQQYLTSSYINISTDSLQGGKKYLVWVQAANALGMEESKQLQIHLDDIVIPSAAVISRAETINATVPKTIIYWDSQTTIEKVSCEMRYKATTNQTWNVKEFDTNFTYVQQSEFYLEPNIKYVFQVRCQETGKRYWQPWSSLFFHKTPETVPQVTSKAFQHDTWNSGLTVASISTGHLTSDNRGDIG
Method: (§1) The precise binding affinities of the purified Nanobodies were determined in a multi-cycle kinetic analysis using Surface Plasmon Resonance analysis (Biacore T100) on Fc-fusions of human IL12Rβ1, IL12Rβ2 and IL-23R extracellular domains (R&D Systems, #839-B1, #1959-B2, #1400-IR). Sensorchips CM5 were immobilized with anti-hIgG antibody (GE Healthcare, BR-1008-39), after which receptors were captured at 5 μg/ml protein and contact time of 120 seconds. Running buffer used was HBS-EP+ (GE Healthcare, BR-1006-69) at 25° C., with a flow-rate of […]. For immobilization by amine coupling, EDC/NHS was used for activation and ethanolamine HCl for deactivation (Biacore, amine coupling kit). Nanobodies were evaluated at a concentration range between 1.37 nM and 3 μM. Nanobodies were allowed to associate for 2 min and to dissociate for 15 min at a flow rate of […]. In between injections, the surfaces were regenerated with a 3 min pulse of 3M MgCl2 and 2 min stabilization period. Evaluation of the association/dissociation data was performed by fitting a 1:1 interaction model (Langmuir binding model) by Biacore TWO software v2.0.3.

[2] = tested on: IL-23 dependent IL-17 release, human PBMCs; experiment: IL-23 dependent IL-17 release in human PBMCs; format: cell-based; details: 9 days; donor D840
Method: In this assay set-up human PBMCs were cultured in the presence of soluble IL23 to allow differentiation of T cells towards the Th17 phenotype. Cells were seeded onto OKT-3 (eBioscience #16-0037-85) coated plates in the presence of recombinant human IL-23 (eBioscience #14-8239) and PeliCluster CD28 (Sanquin #M1650) in solution. Cytokine (IL17) release in the presence or absence of the respectively Nanobodies was determined by ELISA after an incubation period of 9 days.
Dose-dependent inhibition of the panel of bispecific IL23R-CD4 and IL12Rβ1-CD4 polypeptides was assessed in comparison to the respective monovalent Nanobodies, with in this case the IL12Rβ1-CD4 specific polypeptides serving as negative controls. […] There is a preference for the IL12Rβ1 building block in the C-terminal position from CD4 in this assay. There is a clear difference in potency between the two IL12Rβ1 family members, corresponding to the different binding kinetics and affinities, and this difference is preserved in the potency of the bispecific constructs.

[3] = molecular target: T2, IL23R on Th17 differentiated T cells (Homo sapiens, UniProt Q5VWK5); experiment: Flow cytometry binding to T cells differentiated towards Th17 phenotype; details: IL23R Nanobodies on Th17 differentiated cells
T2 construct: endogenous in cells; host or cells: T cells within human PBMCs differentiated towards Th17
T2 sequence (Q5VWK5 24-629): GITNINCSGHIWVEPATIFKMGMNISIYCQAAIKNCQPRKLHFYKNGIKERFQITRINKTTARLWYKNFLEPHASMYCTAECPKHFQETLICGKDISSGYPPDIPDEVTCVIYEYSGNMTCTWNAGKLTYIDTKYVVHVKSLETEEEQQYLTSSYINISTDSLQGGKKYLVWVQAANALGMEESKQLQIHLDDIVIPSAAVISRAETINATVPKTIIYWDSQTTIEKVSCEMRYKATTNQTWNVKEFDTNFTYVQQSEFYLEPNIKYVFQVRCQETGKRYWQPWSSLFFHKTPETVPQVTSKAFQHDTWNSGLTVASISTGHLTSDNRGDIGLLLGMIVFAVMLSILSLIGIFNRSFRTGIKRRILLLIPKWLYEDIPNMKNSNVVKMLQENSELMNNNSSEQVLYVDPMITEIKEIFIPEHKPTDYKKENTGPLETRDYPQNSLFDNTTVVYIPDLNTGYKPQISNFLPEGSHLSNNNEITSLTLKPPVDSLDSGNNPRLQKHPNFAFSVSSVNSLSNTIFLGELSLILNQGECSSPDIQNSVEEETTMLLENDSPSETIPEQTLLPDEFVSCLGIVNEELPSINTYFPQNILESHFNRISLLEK
Method: As the expression of IL23R was very low in the T cell pool, the binding of monovalent IL23R Nanobodies was assessed on cells that were differentiated towards the Th17 phenotype by the incubation of PBMCs in the presence of a cytokine cocktail and IL-23, recombinant IL-6 (eBioscience #34-8069-82), recombinant TGF-b1 (R&D #240-B), anti-human IL-4 antibody(BD#554481), recombinant IL-1b (BD#554602)) and recombinant Human IL-23 (R&D Systems #219-IL-005) with co-stimulation of plate coated OKT-3 (eBioscience #16-0037-85), PeliCluster CD28 (Sanquin #M1650). Following this procedure, low but detectable IL23R expression levels were obtained. Optimization in the Th17 differentiation protocol could further increase these expression levels.
Dose-dependent binding of monovalent Nanobodies was assessed by flow cytometry on the respective Th1 or Th17 enriched T cell populations. Serial dilutions of antibody or Nanobodies were allowed to associate for 30 minutes at 4° C. in FACS buffer (PBS supplemented with 10% FBS and 0.05% azide). Cells were washed by centrifugation and probed with anti-FLAG antibodies (Sigma F1804) for 30 minutes at 4° C., to detect bound Nanobody. Detection was done with Goat anti-Mouse IgG-PE (Jackson ImmunoResearch #115-116-071) for 30 minutes at 4° C. […] The cells were then analysed via a BD FACSArray.

[4] = tested on: IL-12 dependent IFN-γ release, human T cells; experiment: IL-12 mediated IFN-γ release in activated human T cells; format: cell-based; details: 0.2 pM IL-12; 72 h; donor D839
Method: The ability of bispecific polypeptides to simultaneously engage both targets on the same cell was analysed in a IL-12 dependent functional assay, inhibition of IL-12 mediated IFN-γ release in activated human T cells. Since the functional blockade is only mediated via IL12R, avidity by the simultaneous binding of the CD4 Nanobody is expected to translate into increased potency of the bispecific in inhibition of cytokine release.
Isolated human T cells from buffycoats were activated for four days with Dynabeads® Human T-Activator CD3/CD28 (Gibco—Life Technologies #11131D) and one day with IL-2. To differentiate into Th1 subtype, T cells were cultured in presence of IL-12 with co-stimulation provided by plate coated CD3 at 0.5 μg/ml (eBioscience #16-0037-85) and anti-CD28 (1 μg/ml PeliCluster, Sanquin #M1650) in solution.
Dose-dependent blockade of IL-12 mediated IFNγ release was assessed for the bispecific IL-12Rβ2-CD4 and IL-12Rβ1-CD4 polypeptides in both orientations, and the corresponding monovalent Nanobodies. The IL-23R-CD4 bispecific polypeptides served as negative controls. Representative graphs of the bispecific IL12Rβ1-CD4, IL12Rβ2-CD4 and IL23R-CD4 polypeptides are shown in FIG. 3.9, and IC50 values in Table 3.2. […] Although bispecific constructs in both orientations show potency enhancements, the IL12Rβ2 Nanobody in the N-terminal position from CD4 gave stronger enhancements.

[5] = molecular target: T3, human IL12Rβ1 extracellular domain Fc-fusion (Homo sapiens, UniProt P42701); experiment: SPR (Biacore T100) on IL12Rβ1-Fc; format: binding
T3 construct: Fc-fusions of human IL12Rβ1, IL12Rβ2 and IL-23R extracellular domains; purchased R&D Systems #839-B1
Method: as §1

activated human T cells = experiment: Flow cytometry binding to activated human T cells (TH1); details: IL12Rb1 and IL12Rb2 Nanobodies on TH1 activated T cells
Method: Dose-dependent binding of monovalent Nanobodies to their cell-expressed receptor in the context of the heterodimeric complex was determined by flow cytometry on activated human T cells from distinct healthy donors.
Human T cells were isolated using the Human T Cell Enrichment Cocktail (RosetteSep #15061) and pre-activated for four days with Dynabeads® Human T-Activator CD3/CD28 (Gibco—Life Technologies #11131D) and one day with recombinant human IL-2 (Life Technologies—Gibco #PHC0027) to induce TH1 differentiation. Routinely, T cell markers surface expression and activation state was checked by FACS using anti-CD3 PE (eBioscience #12-0037-73), anti-CD8-PE (BD Bioscience #555367), anti-CD45RO-PE (BD Bioscience #555493), anti-CD45RA-APC (BD Bioscience #550855) anti-CD25-PE (BD Bioscience #557138) and anti-CD69-PE (BD Bioscience #557050). IL12R surface expression was confirmed by FACS using IL12Rβ1 antibody (R&D MAB839), followed by goat anti-mouse PE (Jackson Immuno Research 115-115-164). The expression of IL23R was checked by polyclonal goat anti-IL-23R (R&D AF1400). CD4 surface expression was confirmed by FACS using APC-labelled anti-CD4 (BD Bioscience #345771). […]
Dose-dependent binding of monovalent Nanobodies was assessed by flow cytometry on the respective Th1 or Th17 enriched T cell populations. […] The cells were then analysed via a BD FACSArray.

B1: MEHD7945A: two-in-one Mab with specificity for EGFR and Her3 (antibody, chains of the INN, looked up, V domains shown)
VH: EVQLVESGGGLVQPGGSLRLSCAASGFTLSGDWIHWVRQAPGKGLEWVGEISAAGGYTDYADSVKGRFTISADTSKNTAYLQMNSLRAEDTAVYYCARESRVSFEAAMDYWGQGTLVTVSS
VL: DIQMTQSPSSLSASVGDRVTITCRASQNIATDVAWYQQKPGKAPKLLIYSASFLYSGVPSRFSGSGSGTDFTLTISSLQPEDFATYYCQQSEPEPYTFGQGTKVEIK
For B1, the Kd (Her3) is listed as 0.39 nM and the Kd (EGFR) is listed as 1.9 nM.

B2: IL23R#20: IL-23R specific ligand competing Nanobody (protein)
VHH: EVQLVESGGGLVQAGGSLRLSCAASGRTFSSYAMGWFRQAPGKDREFVAAISWIGESTYYADSVKGRFTISRDNAKNTVYLRMNSLKPEDTAVYYCAADLYYTAYVAAADEYDYWGQGTLVTVSS
With B2 the “Binding kinetics (SPR) ka (1/Ms), IL-23R” value [1] was 3e+06 M⁻¹ s⁻¹, the “Binding kinetics (SPR) kd (1/s), IL-23R” value [1] was 0.23 s⁻¹ and the “IL-17 release PBMC D840 IC50 (M)” value [2] was “no fit”. For the same molecule, the “Binding T cells (FACS) EC50 (M)” value [3] was “No fit”.

B3: IL12Rb1#31: IL-12Rβ1 specific ligand competing Nanobody (protein)
VHH: EVQLVESGGGLVQTGGSLRLSCAASGRTPSIIAMGWFRQTPGKEREFVGEIILSKGFTYYADSVKGRFTISRANAKNTITMYLQMNSLKSEDTAVYYCAARQNWSGNPTRTNEYEYWGQGTLVTVSS
For B3, the “IFNγ release T cells D839 IC50 (M)” value [4] was “no fit”, the “Binding kinetics (SPR) ka (1/Ms), IL12Rβ1” value [5] was 720000 M⁻¹ s⁻¹ and the “Binding kinetics (SPR) kd (1/s), IL12Rβ1” value [5] was 0.017 s⁻¹. The “Binding T cells (FACS) EC50 (M)” value (activated human T cells) was “No fit”.
